Patent publication US20190117763A1

Molecular target: wildtype PV1 VLPs (74S empty capsids, N-antigenic form) (poliovirus serotype 1 (PV1), Mahoney strain) (UniProt P03300)
UniProt P03300, sequence (P03300 2-341 limits assumed, chain 1 of 3): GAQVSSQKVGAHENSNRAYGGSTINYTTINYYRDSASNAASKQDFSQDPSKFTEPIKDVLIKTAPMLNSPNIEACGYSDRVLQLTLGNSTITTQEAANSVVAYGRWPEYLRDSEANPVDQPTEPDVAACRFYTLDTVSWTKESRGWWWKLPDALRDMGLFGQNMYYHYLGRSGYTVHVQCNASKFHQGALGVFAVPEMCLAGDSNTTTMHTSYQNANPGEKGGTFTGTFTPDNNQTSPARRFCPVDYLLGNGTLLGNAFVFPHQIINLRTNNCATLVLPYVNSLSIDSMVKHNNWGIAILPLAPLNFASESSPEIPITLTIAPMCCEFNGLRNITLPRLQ
UniProt P03300, sequence (P03300 342-579 limits assumed, chain 2 of 3): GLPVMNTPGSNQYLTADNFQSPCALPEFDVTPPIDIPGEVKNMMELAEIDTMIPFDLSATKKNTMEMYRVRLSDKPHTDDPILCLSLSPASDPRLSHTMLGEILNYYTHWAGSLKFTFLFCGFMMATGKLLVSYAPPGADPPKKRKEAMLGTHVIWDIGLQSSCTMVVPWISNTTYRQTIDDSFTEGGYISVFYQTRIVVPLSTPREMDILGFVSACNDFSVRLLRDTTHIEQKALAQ
UniProt P03300, sequence (P03300 580-881 limits assumed, chain 3 of 3): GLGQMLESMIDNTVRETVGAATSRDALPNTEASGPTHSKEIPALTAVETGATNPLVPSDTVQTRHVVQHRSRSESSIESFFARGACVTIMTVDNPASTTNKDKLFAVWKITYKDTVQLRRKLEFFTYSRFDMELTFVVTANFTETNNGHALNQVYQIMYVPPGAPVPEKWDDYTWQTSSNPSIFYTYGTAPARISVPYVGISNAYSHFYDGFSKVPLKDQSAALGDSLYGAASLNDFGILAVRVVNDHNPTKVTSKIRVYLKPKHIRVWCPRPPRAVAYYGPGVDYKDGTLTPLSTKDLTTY

Novus 14D2(7C5) monoclonal antibody
N-antigenic units/µl (N-antigenic units/µl): 6.15
